Assay results reported in patent US20090028788A1 (WASHINGTON UNIVERSITY IN ST LOUIS, published 2009).
[ ]: non-standard residue; d: D form. The star is where a group is joined. Cypate = CC1(C)C(/C=C/C=C/C=C/C=C2/N(CCC(=O)*)c3ccc4ccccc4c3C2(C)C)=[N+](CCC(=O)O)c2ccc3ccccc3c21

Key:
[1] = biological target: T1, purified human αvβ3 integrin protein (human, UniProt P06756 31-1048; P05106 27-788); experiment: competition with 125I-echistatin on purified human αvβ3 integrin, filter plate
T1 construct: Bought heterodimer; also called ABI; purified αvβ3 integrin

[2] = biological target: T1, purified human αvβ3 integrin protein; experiment: as above; remark: listed apart in the source
[3] = biological target: T1, purified human αvβ3 integrin protein; experiment: competition with 125I-echistatin on purified αvβ3 integrin, filtration plate (Example 3)
[4] = biological target: T1, purified human αvβ3 integrin protein; experiment: competition with 125I-echistatin on purified human αvβ3 integrin, filter plate; remark: listed apart in the source

| Molecule | IC50 [1] [µM] | IC50 [2] [µM] | IC50 [3] [µM] | IC50 [4] [µM] |
| --- | --- | --- | --- | --- |
| Cypate(Octreotate)1-(Arg-Gly-Asp-NH2)1 (peptide) | 4.67 |  |  |  |
| GRDSPK (HELM PEPTIDE1{[CC1(C)C(/C=C/C=C/C=C/C=C2/N(CCC(=O)[*:2])c3ccc4ccccc4c3C2(C)C)=[N+](CCC(=O)O)c2ccc3ccccc3c21].G.R.D.S.P.K}$$$$V2.0; SMILES CC1(C)C(/C=C/C=C/C=C/C=C2/N(CCC(=O)NCC(=O)N[C@@H](CCCNC(=N)N)C(=O)N[C@@H](CC(=O)O)C(=O)N[C@@H](CO)C(=O)N3CCC[C@H]3C(=O)N[C@@H](CCCCN)C(=O)O)c3ccc4ccccc4c3C2(C)C)=[N+](CCC(=O)O)c2ccc3ccccc3c21, also called Cypate-GRDSPK; Cypate-GRDSPK-OH) [Cypate-Gly-Arg-Asp-Ser-Pro-Lys-OH] |  | 7.02 | > 100 |  |
| CRGDGRC (HELM PEPTIDE1{[CC1(C)C(/C=C/C=C/C=C/C=C2/N(CCC(=O)[*:2])c3ccc4ccccc4c3C2(C)C)=[N+](CCC(=O)O)c2ccc3ccccc3c21].C.R.G.D.G.R.C.[am]}$PEPTIDE1,PEPTIDE1,2:R3-8:R3$$$V2.0; SMILES CC1(C)C(/C=C/C=C/C=C/C=C2/N(CCC(=O)N[C@H]3CSSC[C@@H](C(N)=O)NC(=O)[C@H](CCCNC(=N)N)NC(=O)CNC(=O)[C@H](CC(=O)O)NC(=O)CNC(=O)[C@H](CCCNC(=N)N)NC3=O)c3ccc4ccccc4c3C2(C)C)=[N+](CCC(=O)O)c2ccc3ccccc3c21) [Cypate-cyclo(CRGDGRC)-NH2] |  |  |  | 1.09 |
| GRGDSPK (HELM PEPTIDE1{[CC1(C)C(/C=C/C=C/C=C/C=C2/N(CCC(=O)[*:2])c3ccc4ccccc4c3C2(C)C)=[N+](CCC(=O)O)c2ccc3ccccc3c21].G.R.G.D.S.P.K}$$$$V2.0; SMILES CC1(C)C(/C=C/C=C/C=C/C=C2/N(CCC(=O)NCC(=O)N[C@@H](CCCNC(=N)N)C(=O)NCC(=O)N[C@@H](CC(=O)O)C(=O)N[C@@H](CO)C(=O)N3CCC[C@H]3C(=O)N[C@@H](CCCCN)C(=O)O)c3ccc4ccccc4c3C2(C)C)=[N+](CCC(=O)O)c2ccc3ccccc3c21, also called Cypate-GRGDSPK; Cypate-GRGDSPK-OH) [Cypate-Gly-Arg-Gly-Asp-Ser-Pro-Lys-OH] |  | 0.328 | 10.7 |  |
| KRGDXDXX (HELM PEPTIDE1{[CC1(C)C(/C=C/C=C/C=C/C=C2/N(CCC(=O)[*:2])c3ccc4ccccc4c3C2(C)C)=[N+](CCC(=O)O)c2ccc3ccccc3c21].K.R.G.D.[dF].D.[dF].[O=C(CCCCCN[*:1])[*:2]].[am]}$$$$V2.0; SMILES CC1(C)C(/C=C/C=C/C=C/C=C2/N(CCC(=O)N[C@@H](CCCCN)C(=O)N[C@@H](CCCNC(=N)N)C(=O)NCC(=O)N[C@@H](CC(=O)O)C(=O)N[C@H](Cc3ccccc3)C(=O)N[C@@H](CC(=O)O)C(=O)N[C@H](Cc3ccccc3)C(=O)NCCCCCC(N)=O)c3ccc4ccccc4c3C2(C)C)=[N+](CCC(=O)O)c2ccc3ccccc3c21) [Cypate-Lys-Arg-Gly-Asp-DPhe-Asp-DPhe-EAhx-NH2] | 0.328 |  |  |  |
| RGDXVK (HELM PEPTIDE1{R.G.D.[dF].V.K}$PEPTIDE1,PEPTIDE1,1:R1-6:R2$$$V2.0; SMILES CC(C)[C@@H]1NC(=O)[C@@H](Cc2ccccc2)NC(=O)[C@H](CC(=O)O)NC(=O)CNC(=O)[C@H](CCCNC(=N)N)NC(=O)[C@H](CCCCN)NC1=O) [cyclo[RGDfVK]] |  |  | 1.93 |  |
| cyclo(K(Cypate)RGD[dF]V) (SMILES CC(C)[C@@H]1NC(=O)[C@@H](Cc2ccccc2)NC(=O)[C@H](CC(=O)O)NC(=O)CNC(=O)[C@H](CCCNC(=N)N)NC(=O)[C@H](CCCCNC(=O)CCN2/C(=C/C=C/C=C/C=C/C3=[N+](CCC(=O)O)c4ccc5ccccc5c4C3(C)C)C(C)(C)c3c2ccc2ccccc32)NC1=O, also called Cyclo(K^(Cypate)RGDfV); cyclo-[K^(Cypate)RGDfV]) [Cyclo(Lys(Cypate)-Arg-Gly-Asp-DPhe-Val)] |  | 79.5 | 79.1 | 79.5 |
| CRGDDC (HELM PEPTIDE1{[CC1(C)C(/C=C/C=C/C=C/C=C2/N(CCC(=O)[*:2])c3ccc4ccccc4c3C2(C)C)=[N+](CCC(=O)O)c2ccc3ccccc3c21].C.R.G.D.D.C.[am]}$PEPTIDE1,PEPTIDE1,2:R3-7:R3$$$V2.0; SMILES CC1(C)C(/C=C/C=C/C=C/C=C2/N(CCC(=O)N[C@H]3CSSC[C@@H](C(N)=O)NC(=O)[C@H](CC(=O)O)NC(=O)[C@H](CC(=O)O)NC(=O)CNC(=O)[C@H](CCCNC(=N)N)NC3=O)c3ccc4ccccc4c3C2(C)C)=[N+](CCC(=O)O)c2ccc3ccccc3c21) [Cypate-cyclo(CRGDDC)-NH2] |  |  |  | 1.89 |
| CRGDLC (HELM PEPTIDE1{[CC1(C)C(/C=C/C=C/C=C/C=C2/N(CCC(=O)[*:2])c3ccc4ccccc4c3C2(C)C)=[N+](CCC(=O)O)c2ccc3ccccc3c21].C.R.G.D.L.C.[am]}$PEPTIDE1,PEPTIDE1,2:R3-7:R3$$$V2.0; SMILES CC(C)C[C@@H]1NC(=O)[C@H](CC(=O)O)NC(=O)CNC(=O)[C@H](CCCNC(=N)N)NC(=O)[C@@H](NC(=O)CCN2/C(=C/C=C/C=C/C=C/C3=[N+](CCC(=O)O)c4ccc5ccccc5c4C3(C)C)C(C)(C)c3c2ccc2ccccc32)CSSC[C@@H](C(N)=O)NC1=O) [Cypate-cyclo(CRGDLC)-NH2] |  |  |  | 9.64 |
